In general, Km refers to the substrate concentration at which the rate is half of its maximum. A word on the kcat: it is the number of substrate molecules converted per active site and unit of time at saturation. For orientation: kcat/Km means the second-order rate constant that governs catalysis at low substrate concentration.

Substrate in data set [1]: COc1cc(C(=O)[C@@H](CO)Oc2ccccc2OC)ccc1O
The data set is described as follows: Kinetics of the enzymatic cleavage of β(R)-MPHPV by BaeA (3:N14A). The note with it: other: β(R)-MPHPV into GS-HPV, 98 nM dimeric enzyme, 5 mM GSH, pH 8.0, 25° C. It is filed as biochemical, Novosphingobium aromaticivorans. From the text:
(§1) To generate mutant 2:S14A, pVP302K/2873-H2872 was amplified by kinase phosphorylated primers “Saro2872-S14A_R” and “Saro2872-S14A_F”. To generate mutant 3:S15A, pVP302K/H2873-2872 was amplified by kinase phosphorylated primers “Saro2873-S15A_R” and “Saro2873-S15A_F”. To generate mutant 3:N14A, pVP302K/2873-H2872 was amplified by kinase phosphorylated primers “Saro2873-S15A_R” and “Saro2873-N14A_F”. These linear fragments were separately circularized using T4 DNA ligase to generate plasmids pVP302K/2873-H2872(S14A), pVP302K/H2873(S15A)-2872, and pVP302K/2873(N14A)-H2872, respectively.
(§2) Expression and purification of recombinant enzymes. Recombinant proteins were expressed using the plasmids described above in E. coli B834 containing plasmid pRARE2 (Novagen) grown for ˜25 hours at 25° C. in ZYM-5052 Autoinduction Medium containing kanamycin and chloramphenicol. Recombinant proteins were purified using a Ni^2+-NTA column as described in Example 1 above, except using gravity-flow columns instead of an FPLC system. After removal of His8-tags using Tev protease, recombinant proteins retained a Ser-Ala-Ile-Ala-Gly-peptide on their N-termini, derived from the linker between the protein and the Tev protease recognition site. Recombinant LigF1 was purified as previously described (Gall and Ralph et al. 2014).
(§3) Kinetics of the enzymatic cleavage of β(R)-MPHPV. Various concentrations of racemic MPHPV (equal amounts of the β(S)- and β(R)-stereoisomers) were combined with 5 mM GSH in RB. […] At specified time points, 200 μL of a reaction was removed and combined with 40 μL of 1 M HCl (Acros Organics) to stop the reaction before HPLC analysis to quantify GS-HPV formed. […]
(§4) HPLC analysis. Analysis and quantification of aromatic compounds were performed using an Ultra AQ C18 5 μm column (Restek) attached to a System Gold HPLC (Beckman Coulter) with running buffers and methods described in Example 1. The eluent was analyzed for light absorbance between 191 and 600 nm, and absorbances at 280 nm were used for quantification of aromatic metabolites by comparing peak areas to those of standards.

Data set [2] can be described thus: Kinetics of the enzymatic cleavage of β(R)-MPHPV into GS-HPV. Format: biochemical. The following applies: inferred from the 3:N14A variant. The method, then: Kinetics of the enzymatic cleavage of β(R)-MPHPV. Various concentrations of racemic MPHPV (equal amounts of the β(S)- and β(R)-stereoisomers) were combined with 5 mM GSH in RB. At time zero, 100 μL of a given enzyme in RB+5 mM GSH was combined with 1000 μL of the racemic MPHPV/GSH sample at 25° C. (both samples were equilibrated to 25° C. before mixing). Final concentrations of β(R)-MPHPV in each reaction were 0.0045, 0.010, 0.017, 0.068, or 0.13 mM. Final enzyme concentrations were 18 nM BaeA, 23 nM BaeA (2:S14A), 22 nM BaeA (3:S15A), 24 nM BaeA (2:S14A/3:S15A), 98 nM BaeA (3N14A), or 70 nM LigE (Saro_2405) (all concentrations are for the dimeric enzyme, except for LigE, which is the concentration of the monomer). At specified time points, 200 μL of a reaction was removed and combined with 40 μL of 1 M HCl (Acros Organics) to stop the reaction before HPLC analysis to quantify GS-HPV formed. Control experiments were allowed to proceed for several hours to ensure that only the β(R)-MPHPV in the reaction mixtures was being reacted with in these experiments.
as §4

Substrate in data set [3]: COc1cc(C(=O)[C@@H](CO)Oc2ccccc2OC)ccc1O
The data set is described as follows: Kinetics of the enzymatic cleavage of β(R)-MPHPV by BaeA (3:S15A). Format: biochemical, Novosphingobium aromaticivorans. The note with it: other: β(R)-MPHPV into GS-HPV, 22 nM dimeric enzyme, 5 mM GSH, pH 8.0, 25° C.
Text: as §1, §2, §3, §4

B1: Novosphingobium aromaticivorans BaeA (Saro_2872/Saro_2873 heterodimer, SEQ ID NO:40/SEQ ID NO:42) variant 3:N14A (Asn14 of Saro_2873 to Ala) (Novosphingobium … (protein)
chain 1: MSALLYHGEPNGASLTVLAALAETGLDIECRRIDLLAGERHSLPGIVDPVALDLSIEGEGPVLVIDGEAMTESVFLAQYLDEAAGGVGLQPTDAYARWEMMMWCRQITERLSPAAALLGNLATSQSAIAAIPAEDFAILAARIVSDDLRERWQALNDDAVNAAQVADSETKVAAAVDRCEKQLGDGREWLMGTFSIADLVTYSWLAGMEPLRPAAFADAPLVKAWLARTAARPCVQAALARATISEPLRAWAPGPEINRWG
chain 2: MDEVSLYHWEPNAASGKPMLALMEKGVPFSSHYIDMLQFDQHKPEYLAINPQGTIPAMTHNGQVLTESTAIMEYVNDRFDGPDLMPADAQDRWRVRWWMKFMDQWLGPSFSMIGWSVFVGPMVRQRDPAELAAAIDRIPLPERRTAWRKAINGDFSESEMAESRRRVGLGIAKLEEELGKRPYVGSNQYSLADINIFNSTYSLPISQPDLAGKDRTPNIMRWLKRVYTREAVKKTWAMGKTDLAHRYGLIMAEIEG
notes: His8 tag on Saro_2872 removed by TEV
Regarding B1, in data set [1], the Michaelis constant (Km) was determined as 250 ± 60 µM, the kcat amounted to 0.14 ± 0.02 s⁻¹ and the kcat/Km was 500 ± 200 M⁻¹ s⁻¹.

B2: Saro_2872: polypeptide from Novosphingobium aromaticivorans, SEQ ID NO:40; subunit of BaeA (protein)
chain: MSALLYHGEPNGASLTVLAALAETGLDIECRRIDLLAGERHSLPGIVDPVALDLSIEGEGPVLVIDGEAMTESVFLAQYLDEAAGGVGLQPTDAYARWEMMMWCRQITERLSPAAALLGNLATSQSAIAAIPAEDFAILAARIVSDDLRERWQALNDDAVNAAQVADSETKVAAAVDRCEKQLGDGREWLMGTFSIADLVTYSWLAGMEPLRPAAFADAPLVKAWLARTAARPCVQAALARATISEPLRAWAPGPEINRWG
modifications: Novosphingobium aromaticivorans
notes: subunit of BaeA
On to B2, for which, in data set [2], the “activity of the Saro_2872 subunit in BaeA relative to the Saro_2873 subunit” value is reported as less than 5%.

B3: Novosphingobium aromaticivorans BaeA (Saro_2872/Saro_2873 heterodimer, SEQ ID NO:40/SEQ ID NO:42) variant 3:S15A (Ser15 of Saro_2873 to Ala) (Novosphingobium … (protein)
chain 1: MSALLYHGEPNGASLTVLAALAETGLDIECRRIDLLAGERHSLPGIVDPVALDLSIEGEGPVLVIDGEAMTESVFLAQYLDEAAGGVGLQPTDAYARWEMMMWCRQITERLSPAAALLGNLATSQSAIAAIPAEDFAILAARIVSDDLRERWQALNDDAVNAAQVADSETKVAAAVDRCEKQLGDGREWLMGTFSIADLVTYSWLAGMEPLRPAAFADAPLVKAWLARTAARPCVQAALARATISEPLRAWAPGPEINRWG
chain 2: MDEVSLYHWEPNANAGKPMLALMEKGVPFSSHYIDMLQFDQHKPEYLAINPQGTIPAMTHNGQVLTESTAIMEYVNDRFDGPDLMPADAQDRWRVRWWMKFMDQWLGPSFSMIGWSVFVGPMVRQRDPAELAAAIDRIPLPERRTAWRKAINGDFSESEMAESRRRVGLGIAKLEEELGKRPYVGSNQYSLADINIFNSTYSLPISQPDLAGKDRTPNIMRWLKRVYTREAVKKTWAMGKTDLAHRYGLIMAEIEG
notes: His8 tag on Saro_2873 removed by TEV
In the case of B3, in data set [3], the Km is 100 ± 20 µM, the kcat was found to be 2.4 ± 0.3 s⁻¹ and the kcat/Km turned out to be 23000 ± 6000 M⁻¹ s⁻¹.

Values taken from patent US11447754B2, “In vitro methods of chemical conversion using non-stereospecific glutathione lyases” (WISCONSIN ALUMNI RESEARCH FOUNDATION, priority 2017, dated 2022).
